Test results from patent publication US20190389973A1 (Y BIOLOGICS, published 2019).

Columns and labels:
VEGFA = experiment: ELISA on coated VEGFA
Procedure: (§1) The affinity of Fv2mabs consisting of the tandem Fv combinations of anti-TNF-α and anti-VEGFA; and anti-TNF-α and anti-IL17A was measured by using ELISA method. Antigens such as TNF-α, VEGFA, and IL-17A, were fixed on an immune-plate at a concentration of 100 ng/well (96 well) by using pH 7.4 PBS as a coating buffer through a reaction at 4° C. overnight. Each well was once washed with PBST 200 μl, and then a surface blocking reaction was performed at room temperature with 5% skim milk for one to two hours. Subsequently, after washing each well twice with PBST 200 μl, a serial dilution was performed with an appropriate bispecific Fv2mab to measure and a control parental antibody from an appropriate concentration in an interval of ½ to ⅕ for a reaction at room temperature for one to two hours. Then, each well was washed three times with PBST 200 μl to remove unbound antibodies, and a dilution was performed with horseradish peroxidase (HRP)-conjugated anti-human-Fc-HRP (Millipore, USA) at a ratio of 1:3000 for a reaction at room temperature for one hour. Then, each well was washed three times with PBST 200 μl to remove unbound detection antibodies. A color reaction of HRP was induced by using TMB solution (GEhealthcare, USA) in a volume of […], and the reaction was terminated by using a stop solution (2.5 M H2SO4, 100 μl/well).

TNF-α = molecular target: T1, TNF-α (UniProt P01375 77-233); experiment: ELISA on coated TNF-α
T1 construct: Soluble antigen used as analyte in the OCTET assay and coated in ELISA; also called TNF-a
T1 sequence (P01375 77-233 limits assumed): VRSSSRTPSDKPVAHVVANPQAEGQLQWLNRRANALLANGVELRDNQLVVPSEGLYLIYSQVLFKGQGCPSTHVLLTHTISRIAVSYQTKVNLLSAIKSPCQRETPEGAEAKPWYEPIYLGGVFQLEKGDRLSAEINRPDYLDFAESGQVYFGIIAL
Procedure: as §1

VEGFA, sequence (P15692 whole entry): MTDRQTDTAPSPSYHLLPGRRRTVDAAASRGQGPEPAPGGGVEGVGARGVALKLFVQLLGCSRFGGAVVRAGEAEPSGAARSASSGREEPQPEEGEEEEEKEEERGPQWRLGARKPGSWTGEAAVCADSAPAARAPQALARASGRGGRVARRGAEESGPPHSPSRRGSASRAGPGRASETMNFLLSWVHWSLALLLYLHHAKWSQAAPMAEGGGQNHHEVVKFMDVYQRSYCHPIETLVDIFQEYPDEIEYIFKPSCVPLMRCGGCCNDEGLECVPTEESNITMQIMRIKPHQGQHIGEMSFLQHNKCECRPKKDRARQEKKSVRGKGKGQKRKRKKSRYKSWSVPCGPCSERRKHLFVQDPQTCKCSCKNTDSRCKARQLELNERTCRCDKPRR

- EC50 (read off the curve) (VEGFA): ~0.3 nM
- binding result (TNF-α): binds
B1: anti-VEGFA AB (antibody, V domains shown)
VH: QVTLKESGPTMVKPTQTLTLTCTFSGFSLSTSGVAVGWIRQPPGQALEWLALIYWDNDKRYSPSLKNRLTVAKDTSKSQVVLTMTNMDPMDTATYYCAHGDGWLFDFWGQGTLVTVSS
VL: QPVLTQPPSVSGAPGQRVTISCTGSNSNIGAGHDVHWYQQLPGAAPKVVIYGNTNRASGVPERFSGSKSATSASLAITGLQAEDEADYYCQSYDNSLSGYVFGTGTKVTVL
notes: The sheet calls it 'parantal antibody'; also called anti-VEGFA antibody; F6 (in-house)
